Assays:
[1] = biological target: NT-495-labeled Arl1^GTP, P40616; experiment: fluorescence anisotropy; conditions: chain shown with the change;; parent: 26 ± 5
[2] = biological target: NT-495-labeled Arl1^GTP (human) (UniProt P40616); experiment: fluorescence polarisation; fluorescence anisotropy, NT-495-labeled Arl1 titrated with DCB variants, 20°C, 50 mM Tris-HCl pH 8.0, 110 mM KCl, 1 mM DTT, 5 mM MgCl2, 0.001% Triton X-100, 0.1% Tween-20, 5 μM GTP; single-site (1:1) model

Sequence of NT-495-labeled Arl1^GTP, P40616 (P40616 15-181 Q71L): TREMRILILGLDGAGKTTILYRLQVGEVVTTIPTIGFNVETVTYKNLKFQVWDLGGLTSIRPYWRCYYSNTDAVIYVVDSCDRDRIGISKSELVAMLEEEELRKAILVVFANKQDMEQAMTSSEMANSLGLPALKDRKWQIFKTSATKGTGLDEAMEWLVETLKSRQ

Binder	Kd [1]	fold increase of Kd against wild type [2]	also measured
His6-DCB^BIG1 (human BIG1 residues 1–228), Q9Y6D6 L156D (protein) MYEGKKTKNMFLTRALEKILADKEVKKAHHSQLRKACEVALEEIKAETEKQSPPHGEAKAGSSTLPPVKSKTNFIEADKYFLPFELACQSKCPRIVSTSLDCLQKLIAYGHLTGNAPDSTTPGKKLIDRIIETICGCFQGPQTDEGVQLQIIKALDTAVTSQHIEIHEGTVLQAVRTCYNIYLASKNLINQTTAKATLTQMLNVIFARMENQALQEAKQMEKERHRQH	86 µM	–	–
His6-DCB^BIG1 (human BIG1 residues 1–228) (domain or fragment) MYEGKKTKNMFLTRALEKILADKEVKKAHHSQLRKACEVALEEIKAETEKQSPPHGEAKAGSSTLPPVKSKTNFIEADKYFLPFELACQSKCPRIVSTSLDCLQKLIAYGHLTGNAPDSTTPGKKLIDRIIETICGCFQGPQTDEGVQLQIIKALLTAVTSQHIEIHEGTVLQAVRTCYNIYLASKNLINQTTAKATLTQMLNVIFARMENQALQEAKQMEKERHRQH	–	–	Kd [2]: 26 µM
His6-DCB^BIG1 (human BIG1 residues 1–228), Q9Y6D6 Q200E (protein) MYEGKKTKNMFLTRALEKILADKEVKKAHHSQLRKACEVALEEIKAETEKQSPPHGEAKAGSSTLPPVKSKTNFIEADKYFLPFELACQSKCPRIVSTSLDCLQKLIAYGHLTGNAPDSTTPGKKLIDRIIETICGCFQGPQTDEGVQLQIIKALLTAVTSQHIEIHEGTVLQAVRTCYNIYLASKNLINQTTAKATLTEMLNVIFARMENQALQEAKQMEKERHRQH	140 µM	–	–
His6-DCB^BIG1 (human BIG1 residues 1–228), Q9Y6D6 K105D (protein) MYEGKKTKNMFLTRALEKILADKEVKKAHHSQLRKACEVALEEIKAETEKQSPPHGEAKAGSSTLPPVKSKTNFIEADKYFLPFELACQSKCPRIVSTSLDCLQDLIAYGHLTGNAPDSTTPGKKLIDRIIETICGCFQGPQTDEGVQLQIIKALLTAVTSQHIEIHEGTVLQAVRTCYNIYLASKNLINQTTAKATLTQMLNVIFARMENQALQEAKQMEKERHRQH	110 µM	–	–

Second part, led by results:

Kd [1]	fold increase of Kd against wild type [2]	Binder	also measured
–	> 5 fold	His6-DCB^BIG1 Lys105Asp (domain or fragment) MYEGKKTKNMFLTRALEKILADKEVKKAHHSQLRKACEVALEEIKAETEKQSPPHGEAKAGSSTLPPVKSKTNFIEADKYFLPFELACQSKCPRIVSTSLDCLQDLIAYGHLTGNAPDSTTPGKKLIDRIIETICGCFQGPQTDEGVQLQIIKALLTAVTSQHIEIHEGTVLQAVRTCYNIYLASKNLINQTTAKATLTQMLNVIFARMENQALQEAKQMEKERHRQH	–
–	> 5 fold	His6-DCB^BIG1 Gln200Glu (domain or fragment) MYEGKKTKNMFLTRALEKILADKEVKKAHHSQLRKACEVALEEIKAETEKQSPPHGEAKAGSSTLPPVKSKTNFIEADKYFLPFELACQSKCPRIVSTSLDCLQKLIAYGHLTGNAPDSTTPGKKLIDRIIETICGCFQGPQTDEGVQLQIIKALLTAVTSQHIEIHEGTVLQAVRTCYNIYLASKNLINQTTAKATLTEMLNVIFARMENQALQEAKQMEKERHRQH	–
